Measurements reported in PMC2330244.
Where two headings read alike, the source gives them in different places.

T1: p73α (UniProt O15350 1-636)
T1 sequence: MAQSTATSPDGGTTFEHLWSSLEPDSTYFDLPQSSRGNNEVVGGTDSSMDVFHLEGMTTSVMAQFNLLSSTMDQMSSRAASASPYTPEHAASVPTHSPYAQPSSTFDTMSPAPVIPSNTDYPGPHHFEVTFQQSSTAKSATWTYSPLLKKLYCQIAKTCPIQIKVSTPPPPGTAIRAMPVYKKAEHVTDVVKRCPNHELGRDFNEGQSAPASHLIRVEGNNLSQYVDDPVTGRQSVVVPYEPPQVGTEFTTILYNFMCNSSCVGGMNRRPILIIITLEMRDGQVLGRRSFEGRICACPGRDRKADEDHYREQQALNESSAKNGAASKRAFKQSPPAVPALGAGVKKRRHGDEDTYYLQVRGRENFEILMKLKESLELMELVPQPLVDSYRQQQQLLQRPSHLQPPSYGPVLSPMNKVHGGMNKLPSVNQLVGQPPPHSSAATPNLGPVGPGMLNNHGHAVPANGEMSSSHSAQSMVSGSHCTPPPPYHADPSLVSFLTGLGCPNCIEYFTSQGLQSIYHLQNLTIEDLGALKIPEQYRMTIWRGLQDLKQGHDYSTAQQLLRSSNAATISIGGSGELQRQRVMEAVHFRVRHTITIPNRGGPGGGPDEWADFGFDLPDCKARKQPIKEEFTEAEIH

T2: p73γ (UniProt O15350-3 1-475)
T2 sequence: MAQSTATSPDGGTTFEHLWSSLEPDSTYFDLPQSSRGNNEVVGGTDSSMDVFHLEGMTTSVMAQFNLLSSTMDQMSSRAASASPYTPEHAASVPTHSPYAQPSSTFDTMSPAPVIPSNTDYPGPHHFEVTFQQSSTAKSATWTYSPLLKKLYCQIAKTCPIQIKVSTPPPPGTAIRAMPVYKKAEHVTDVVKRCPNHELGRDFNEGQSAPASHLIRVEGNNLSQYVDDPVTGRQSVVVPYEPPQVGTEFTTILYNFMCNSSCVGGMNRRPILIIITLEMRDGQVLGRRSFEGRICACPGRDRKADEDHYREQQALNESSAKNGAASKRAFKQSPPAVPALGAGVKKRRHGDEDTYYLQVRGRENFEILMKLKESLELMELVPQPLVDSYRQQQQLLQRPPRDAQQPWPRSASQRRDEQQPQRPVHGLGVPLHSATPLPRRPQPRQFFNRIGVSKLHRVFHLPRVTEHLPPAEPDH

T3: p73β (UniProt O15350-2 1-499)
T3 sequence: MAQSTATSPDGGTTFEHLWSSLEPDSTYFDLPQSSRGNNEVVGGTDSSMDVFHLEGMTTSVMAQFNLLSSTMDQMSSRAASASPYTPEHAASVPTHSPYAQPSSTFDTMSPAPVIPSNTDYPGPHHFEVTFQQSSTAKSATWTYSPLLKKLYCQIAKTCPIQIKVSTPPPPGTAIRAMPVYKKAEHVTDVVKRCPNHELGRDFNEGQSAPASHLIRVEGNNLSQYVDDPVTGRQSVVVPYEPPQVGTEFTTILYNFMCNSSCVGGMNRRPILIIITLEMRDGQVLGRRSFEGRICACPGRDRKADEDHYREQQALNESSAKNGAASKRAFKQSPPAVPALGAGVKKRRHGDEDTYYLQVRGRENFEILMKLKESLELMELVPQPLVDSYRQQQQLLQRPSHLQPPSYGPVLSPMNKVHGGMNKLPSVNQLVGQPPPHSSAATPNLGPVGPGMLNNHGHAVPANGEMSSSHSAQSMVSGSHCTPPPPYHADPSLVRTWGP

T4: p73δ (UniProt O15350-4 1-403)
T4 sequence: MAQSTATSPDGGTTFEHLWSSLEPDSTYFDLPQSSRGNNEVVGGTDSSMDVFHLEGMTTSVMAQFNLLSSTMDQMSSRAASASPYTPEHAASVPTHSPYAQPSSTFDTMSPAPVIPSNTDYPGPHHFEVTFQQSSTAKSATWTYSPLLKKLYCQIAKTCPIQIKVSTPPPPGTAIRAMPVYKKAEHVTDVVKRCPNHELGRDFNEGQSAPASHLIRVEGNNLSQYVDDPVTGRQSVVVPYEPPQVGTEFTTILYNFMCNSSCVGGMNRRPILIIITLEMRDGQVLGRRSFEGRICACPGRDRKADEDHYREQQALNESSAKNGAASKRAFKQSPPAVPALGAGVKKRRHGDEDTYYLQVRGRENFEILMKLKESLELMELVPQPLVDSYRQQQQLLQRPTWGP


Legend:
Experiment in all cases: EMSA
[1] = molecular target: T1, p73α
[2] = molecular target: T2, p73γ
[3] = molecular target: T5, p73α+30 (UniProt O15350 1-636+P04637:364-393, internal_change)
[4] = molecular target: T6, p53 (human, UniProt P04637 1-393)
T6 sequence (P04637 whole entry): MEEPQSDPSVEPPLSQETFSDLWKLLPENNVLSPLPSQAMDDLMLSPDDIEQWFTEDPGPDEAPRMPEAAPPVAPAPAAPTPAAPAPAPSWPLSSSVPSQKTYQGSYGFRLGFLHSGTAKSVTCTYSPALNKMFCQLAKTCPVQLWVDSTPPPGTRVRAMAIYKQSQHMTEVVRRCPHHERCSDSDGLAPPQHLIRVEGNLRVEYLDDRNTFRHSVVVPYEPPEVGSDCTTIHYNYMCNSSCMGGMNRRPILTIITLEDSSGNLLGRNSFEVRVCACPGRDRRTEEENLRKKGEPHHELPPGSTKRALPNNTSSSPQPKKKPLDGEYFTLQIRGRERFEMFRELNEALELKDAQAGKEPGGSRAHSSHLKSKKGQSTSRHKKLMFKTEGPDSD

[5] = molecular target: T5, p73α+30; remark: listed apart in the source
[6] = molecular target: T6, p53; remark: listed apart in the source
[7] = molecular target: T6, p53; remark: listed apart in the source
[8] = molecular target: T3, p73β
[9] = molecular target: T1, p73α; remark: listed apart in the source
[10] = molecular target: T4, p73δ
[11] = molecular target: T5, p73α+30; remark: listed apart in the source

Binder | binding result [1] | binding result [2] | binding signal [3] | binding result [4] | binding signal [5] | binding result [6] | binding result [7] | binding result [8] | binding result [9] | binding result [10] | binding result [11]
p21-5' site 66 bp (dsDNA) DNA 1: AGCATTGGCTTTCTGGCCATCAGGAACATGTCCCAACATGTTGAGCTCTGGCATAGAAGAGGCGCT DNA 2: AGCGCCTCTTCTATGCCAGAGCTCAACATGTTGGGACATGTTCCTGATGGCCAGAAAGCCAATGCT | binds | binds | ~5 fold vs 28 bp oligonucleotide | binds | – | – | – | – | – | – | –
p21-5' site 28 bp (dsDNA) DNA 1: TCAGGAACATGTCCCAACATGTTGAGCT DNA 2: AGCTCAACATGTTGGGACATGTTCCTGA | binds | – | – | – | 1 fold (reference for 66 bp) | binds | – | – | – | – | –
p53 consensus (dsDNA) DNA 1: GGGTAGACATGCCTAGACATGCCTAAGCTCCC DNA 2: GGGAGCTTAGGCATGTCTAGGCATGTCTACCC | – | – | – | – | – | – | binds | binds | binds | binds | binds
